Data set [1] concerns the molecule itself. As to the kind of experiment: SEC + native gel or EMSA; in vitro, with or without Ca^2+; detergents needed to keep the proteins soluble. For orientation: A gel shift assay detects complexes by their altered migration in electrophoresis.
Data set [2] deals with the molecule itself. As to the kind of experiment: SEC-MALS; Superdex 200 10/300 GL; 500 μl of 10–100 μM protein; 20 mM Tris-HCl pH 7.3, 150 mM NaCl, 2 mM dithiothreitol, 0.6% N-lauroylsarcosine; 0.3 ml/min. On the technique in general: Size exclusion chromatography separates by hydrodynamic size, large species first.
Data set [3] concerns the molecule itself. As to the kind of experiment: cross-linking; copper-phenanthroline (1 mM CuSO4/3 mM 1,10-phenanthroline) disulfide cross-linking of purified protein (1 mg/ml) in 20 mM HEPES pH 7.4, 150 mM NaCl, 1 mM TCEP, on ice 15 min; non-reducing SDS-PAGE; efficiency = dimer/(monomer + dimer).
Data set [4] concerns the molecule itself. As to the kind of experiment: FRET or BRET; inter-subunit FRET between FITC- and TMR-labelled monocysteine TM-CC1 in PBS pH 7.3, 1% OG, 1 mM TCEP; excitation 475 nm.

For orientation: stoichiometry N means a count of units in the complex or per binding partner.

B1: STIM1 1–342 (characterized in vitro) (domain or fragment, UniProt Q13586 23-342, looked up)
chain: LSHSHSEKATGTSSGANSEESTAAEFCRIDKPLCHSEDEKLSFEAVRNIHKLMDDDANGDVDVEESDEFLREDLNYHDPTVKHSTFHGEDKLISVEDLWKAWKSSEVYNWTVDEVVQWLITYVELPQYEETFRKLQLSGHAMPRLAVTNTTMTGTVLKMTDRSHRQKLQLKALDTVLFGPPLLTRHNHLKDFMLVVSIVIGVGGCWFAYIQNRYSKEHMKKMMKDLEGLHRAEQSLHDLQERLHKAQEEHRTVEVEKVHLEKKLRDEINLAKQEAQRLKELREGTENERSRQKYAEEELEQVREALRKAEKELESHSSWY
notes: signal peptide in the construct; it may be the CFP fusion m18
On to B1, for which the “stoichiometry N” value in data set [1] is 2.

B2: GB1-TM-CC1 (STIM1 residues 209–310), wild type (domain or fragment, UniProt Q13586 209-310, looked up)
chain: NHLKDFMLVVSIVIGVGGCWFAYIQNRYSKEHMKKMMKDLEGLHRAEQSLHDLQERLHKAQEEHRTVEVEKVHLEKKLRDEINLAKQEAQRLKELREGTENE
notes: STIM1 residues 209-310 (transmembrane domain and CC1); also called STIM1_(209–310); WT; source: E. coli BL21 (DE3), purified (Ni-NTA, gel filtration); not shown: GB1, N-terminal, kept
With B2, the “stoichiometry N” value in data set [2] came to 2.

B3: GB1-TM-CC1 (STIM1 residues 209–310) C227W (domain or fragment, UniProt Q13586 209-310, looked up)
chain: NHLKDFMLVVSIVIGVGGWWFAYIQNRYSKEHMKKMMKDLEGLHRAEQSLHDLQERLHKAQEEHRTVEVEKVHLEKKLRDEINLAKQEAQRLKELREGTENE
notes: STIM1 residues 209-310; also called TM-CC1-C227W; source: E. coli BL21 (DE3), purified (Ni-NTA, gel filtration); not shown: GB1, N-terminal, kept
On to B3, for which the “stoichiometry N” value in data set [2] is 2.

B4: GB1-TM-CC1 monocysteine variant I220C on the C227S background (domain or fragment, UniProt Q13586 209-310, looked up)
chain: NHLKDFMLVVSCVIGVGGSWFAYIQNRYSKEHMKKMMKDLEGLHRAEQSLHDLQERLHKAQEEHRTVEVEKVHLEKKLRDEINLAKQEAQRLKELREGTENE
notes: STIM1 residues 209-310; also called I220C (C227S); source: E. coli BL21 (DE3), purified; not shown: GB1, N-terminal, kept
Take B4: the binding result in data set [3] was “binds”.

B5: TM-CC1 monocysteine variant F214C on the C227W background, labelled with FITC or TMR (domain or fragment, UniProt Q13586 209-310, looked up)
chain: NHLKDCMLVVSIVIGVGGWWFAYIQNRYSKEHMKKMMKDLEGLHRAEQSLHDLQERLHKAQEEHRTVEVEKVHLEKKLRDEINLAKQEAQRLKELREGTENE
modifications: FITC-maleimide or TMR-maleimide on the single cysteine (F214C)
notes: STIM1 residues 209-310 (TM-CC1); also called F214C (C227W TM-CC1); source: E. coli BL21 (DE3), purified, dye-labelled
With B5, the binding result in data set [4] was “binds”.

B6: TM-CC1 monocysteine variant N234C on the C227W background, labelled with FITC or TMR (domain or fragment, UniProt Q13586 209-310, looked up)
chain: NHLKDFMLVVSIVIGVGGWWFAYIQCRYSKEHMKKMMKDLEGLHRAEQSLHDLQERLHKAQEEHRTVEVEKVHLEKKLRDEINLAKQEAQRLKELREGTENE
modifications: FITC-maleimide or TMR-maleimide on the single cysteine (N234C)
notes: STIM1 residues 209-310 (TM-CC1); also called N234C (C227W TM-CC1); source: E. coli BL21 (DE3), purified, dye-labelled
On to B6, for which the binding result in data set [4] was “binds”.

B7: GB1-TM-CC1 monocysteine variant F229C on the C227S background (domain or fragment, UniProt Q13586 209-310, looked up)
chain: NHLKDFMLVVSIVIGVGGSWCAYIQNRYSKEHMKKMMKDLEGLHRAEQSLHDLQERLHKAQEEHRTVEVEKVHLEKKLRDEINLAKQEAQRLKELREGTENE
notes: STIM1 residues 209-310; also called F229C (C227S); source: E. coli BL21 (DE3), purified; not shown: GB1, N-terminal, kept
On to B7, for which, in data set [3], the binding result is reported as “binds”.

B8: GB1-TM-CC1 monocysteine variant I220C on the C227W background (domain or fragment, UniProt Q13586 209-310, looked up)
chain: NHLKDFMLVVSCVIGVGGWWFAYIQNRYSKEHMKKMMKDLEGLHRAEQSLHDLQERLHKAQEEHRTVEVEKVHLEKKLRDEINLAKQEAQRLKELREGTENE
notes: STIM1 residues 209-310; also called I220C (C227W); source: E. coli BL21 (DE3), purified; not shown: GB1, N-terminal, kept
B8: the binding result in data set [3] is given as “binds”.

B9: GB1-TM-CC1 monocysteine variant F229C on the C227W background (domain or fragment, UniProt Q13586 209-310, looked up)
chain: NHLKDFMLVVSIVIGVGGWWCAYIQNRYSKEHMKKMMKDLEGLHRAEQSLHDLQERLHKAQEEHRTVEVEKVHLEKKLRDEINLAKQEAQRLKELREGTENE
notes: STIM1 residues 209-310; also called F229C (C227W); source: E. coli BL21 (DE3), purified; not shown: GB1, N-terminal, kept
Turning to B9, the binding result in data set [3] is “binds”.

These data come from paper PMC4509486, “Inside-out Ca^2+ signalling prompted by STIM1 conformational switch” (Nature Communications, 2015).
